# Source: US20090099029
# T1: Bovine, dephosphorylated, Myelin Basic Protein (MBP), P02687
# T1 chain: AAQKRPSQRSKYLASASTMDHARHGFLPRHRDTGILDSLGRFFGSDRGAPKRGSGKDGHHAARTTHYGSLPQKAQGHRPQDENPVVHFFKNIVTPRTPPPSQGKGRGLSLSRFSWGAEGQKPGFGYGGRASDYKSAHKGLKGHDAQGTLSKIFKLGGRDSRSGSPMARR
# B1: FGFR2 (protein)
# chain: RMKNTTKKPDFSSQPAVHKLTKRIPLRRQVTVSAESSSSMNSNTPLVRITTRLSSTADTPMLAGVSEYELPEDPKWEFPRDKLTLGKPLGEGCFGQVVMAEAVGIDKDKPKEAVTVAVKMLKDDATEKDLSDLVSEMEMMKMIGKHKNIINLLGACTQDGPLYVIVEYASKGNLREYLRARRPPGMEYSYDINRVPEEQMTFKDLVSCTYQLARGMEYLASQKCIHRDLAARNVLVTENNVMKIADFGLARDINNIDYYKKTTNGRLPVKWMAPEALFDRVYTHQSDVWSFGVLMWEIFTLGGSPYPGIPVEELFKLLKEGHRMDKPANCTNELYMMMRDCWHAVPSQRPTFKQLVEDLDRILTLTTNEEYLDLSQPLEQYSPSYPDTRSSCSSGDDSVFSPDPMPYEPCLPQYPHINGSVKT
# B2: STK22B(TSSK2) (protein)
# chain: MDDATVLRKKGYIVGINLGKGSYAKVKSAYSERLKFNVAVKIIDRKKTPTDFVERFLPREMDILATVNHGSIIKTYEIFETSDGRIYIIMELGVQGDLLEFIKCQGALHEDVARKMFRQLSSAVKYCHDLDIVHRDLKCENLLLDKDFNIKLSDFGFSKRCLRDSNGRIILSKTFCGSAAYAAPEVLQSIPYQPKVYDIWSLGVILYIMVCGSMPYDDSDIRKMLRIQKEHRVDFPRSKNLTCECKDLIYRMLQPDVSQRLHIDEILSHSWLQPPKPKATSSASFKREGEGKYRAECKLDTKTGLRPDHRPDHKLGAKTQHRLLVVPENENRMEDRLAETSRAKDHHISGAEVGKAST
# B3: FLT1(VEGFR1) (protein)
# chain: RKMKRSSSEIKTDYLSIIMDPDEVPLDEQCERLPYDASKWEFARERLKLGKSLGRGAFGKVVQASAFGIKKSPTCRTVAVKMLKEGATASEYKALMTELKILTHIGHHLNVVNLLGACTKQGGPLMVIVEYCKYGNLSNYLKSKRDLFFLNKDAALHMEPKKEKMEPGLEQGKKPRLDSVTSSESFASSGFQEDKSLSDVEEEEDSDGFYKEPITMEDLISYSFQVARGMEFLSSRKCIHRDLAARNILLSENNVVKICDFGLARDIYKNPDYVRKGDTRLPLKWMAPESIFDKIYSTKSDVWSYGVLLWEIFSLGGSPYPGVQMDEDFCSRLREGMRMRAPEYSTPEIYQIMLDCWHRDPKERPRFAELVEKLGDLLQANVQQDGKDYIPINAILTGNSGFTYSTPAFSEDFFKESISAPKFNSGSSDDVRYVNAFKFMSLERIKTFEELLPNATSMFDDYQGDSSTLLASPMLKRFTWTDSKPKASLKIDLRVTSKSKESGLSDVSRPSFCHSSCGHVSEGKRRFTYDHAELERKIACCSPPPDYNSVVLYSTPPI
# B4: TBK1 (protein)
# chain: MQSTSNHLWLLSDILGQGATANVFRGRHKKTGDLFAIKVFNNISFLRPVDVQMREFEVLKKLNHKNIVKLFAIEEETTTRHKVLIMEFCPCGSLYTVLEEPSNAYGLPESEFLIVLRDVVGGMNHLRENGIVHRDIKPGNIMRVIGEDGQSVYKLTDFGAARELEDDEQFVSLYGTEEYLHPDMYERAVLRKDHQKKYGATVDLWSIGVTFYHAATGSLPFRPFEGPRRNKEVMYKIITGKPSGAISGVQKAENGPIDWSGDMPVSCSLSRGLQVLLTPVLANILEADQEKCWGFDQFFAETSDILHRMVIHVFSLQQMTAHKIYIHSYNTATIFHELVYKQTKIISSNQELIYEGRRLVLEPGRLAQHFPKTTEENPIFVVSREPLNTIGLIYEKISLPKVHPRYDLDGDASMAKAITGVVCYACRIASTLLLYQELMRKGIRWLIELIKDDYNETVHKKTEVVITLDFCIRNIEKTVKVYEKLMKINLEAAELGEISDIHTKLLRLSSSQGTIETSLQDIDSRLSPGGSLADAWAHQEGTHPKDRNVEKLQVLLNCMTEIYYQFKKDKAERRLAYNEEQIHKFDKQKLYYHATKAMTHFTDECVKKYEAFLNKSEEWIRKMLHLRKQLLSLTNQCFDIEEEVSKYQEYTNELQETLPQKMFTASSGIKHTMTPIYPSSNTLVEMTLGMKKLKEEMEGVVKELAENNHILERFGSLTMDGGLRNVDCL
# B5: STK17A(DRAK1) (protein)
# chain: MIPLEKPGSGGSSPGATSGSGRAGRGLSGPCRPPPPPQARGLLTEIRAVVRTEPFQDGYSLCPGRELGRGKFAVVRKCIKKDSGKEFAAKFMRKRRKGQDCRMEIIHEIAVLELAQDNPWVINLHEVYETASEMILVLEYAAGGEIFDQCVADREEAFKEKDVQRLMRQILEGVHFLHTRDVVHLDLKPQNILLTSESPLGDIKIVDFGLSRILKNSEELREIMGTPEYVAPEILSYDPISMATDMWSIGVLTYVMLTGISPFLGNDKQETFLNISQMNLSYSEEEFDVLSESAVDFIRTLLVKKPEDRATAEECLKHPWLTQSSIQEPSFRMEKALEEANALQEGHSVPEINSDTDKSETKESIVTEELIVVTSYTLGQCRQSEKEKMEQKAISKRFKFEEPLLQEIPGEFIY
# B6: STK22D(TSSK1) (protein)
# chain: MDDAAVLKRRGYLLGINLGEGSYAKVKSAYSERLKFNVAIKIIDRKKAPADFLEKFLPREIEILAMLNHCSIIKTYEIFETSHGKVYIVMELAVQGDLLELIKTRGALHEDEARKKFHQLSLAIKYCHDLDVVHRDLKCDNLLLDKDFNIKLSDFSFSKRCLRDDSGRMALSKTFCGSPAYAAPEVLQGIPYQPKVYDIWSLGVILYIMVCGSMPYDDSNIKKMLRIQKEHRVNFPRSKHLTGECKDLIYHMLQPDVNRRLHIDEILSHCWMQPKARGSPSVAINKEGESSRGTEPLWTPEPGSDKKSATKLEPEGEAQPQAQPETKPEGTAMQMSRQSEILGFPSKPSTMETEEGPPQQPPETRAQ
# B7: FGFR3 (protein)
# chain: RLRSPPKKGLGSPTVHKISRFPLKRQVSLESNASMSSNTPLVRIARLSSGEGPTLANVSELELPADPKWELSRARLTLGKPLGEGCFGQVVMAEAIGIDKDRAAKPVTVAVKMLKDDATDKDLSDLVSEMEMMKMIGKHKNIINLLGACTQGGPLYVLVEYAAKGNLREFLRARRPPGLDYSFDTCKPPEEQLTFKDLVSCAYQVARGMEYLASQKCIHRDLAARNVLVTEDNVMKIADFGLARDVHNLDYYKKTTNGRLPVKWMAPEALFDRVYTHQSDVWSFGVLLWEIFTLGGSPYPGIPVEELFKLLKEGHRMDKPANCTHDLYMIMRECWHAAPSQRPTFKQLVEDLDRVLTVTSTDEYLDLSAPFEQYSPGGQDTPSSSSSGDDSVFAHDLLPPAPPSSGGSRT
# B8: TAOK2(TAO1) (protein)
# chain: MPAGGRAGSLKDPDVAELFFKDDPEKLFSDLREIGHGSFGAVYFARDVRNSEVVAIKKMSYSGKQSNEKWQDIIKEVRFLQKLRHPNTIQYRGCYLREHTAWLVMEYCLGSASDLLEVHKKPLQEVEIAAVTHGALQGLAYLHSHNMIHRDVKAGNILLSEPGLVKLGDFGSASIMAPANSFVGTPYWMAPEVILAMDEGQYDGKVDVWSLGITCIELAERKPPLFNMNAMSALYHIAQNESPVLQSGHWSEYFRNFVDSCLQKIPQDRPTSEVLLKHRFVLRERPPTVIMDLIQRTKDAVRELDNLQYRKMKK
# B9: TAOK3(JIK) (protein)
# chain: MRKGVLKDPEIADLFYKDDPEELFIGLHEIGHGSFGAVYFATNAHTSEVVAIKKMSYSGKQTHEKWQDILKEVKFLRQLKHPNTIEYKGCYLKEHTAWLVMEYCLGSASDLLEVHKKPLQEVEIAAITHGALHGLAYLHSHALIHRDIKAGNILLTEPGQVKLADFGSASMASPANSFVGTPYWMAPEVILAMDEGQYDGKVDIWSLGITCIELAERKPPLFNMNAMSALYHIAQNDSPTLQSNEWTDSFRRFVDYCLQKIPQERPTSAELLRHDFVRRDRPLRVLIDLIQRTKDAVRELDNLQYRKMKKILFQETRNGPLNESQEDEEDSEHGTSLNREMDSLGSNHSIPSMSVSTGSQSSSVNSMQEVMDESSSELVMMHDDESTINSSSSVVHKKDHVFIRDEAGHGDPRPEPRPTQSVQSQALHYRNRERFATIKSASLVTRQIHEHEQENELREQMSGYKRMRRQHQKQLIALENKLKAEMDEHRLKLQKEVETHANNSSIELEKLAKKQVAIIEKEAKVAAADEKKFQQQILAQQKKDLTTFLESQKKQYKICKEKIKEEMNEDHSTPKKEKQERISKHKENLQHTQAEEEAHLLTQQRLYYDKNCRFFKRKIMIKRHEVEQQNIREELNKKRTQKEMEHAMLIRHDESTRELEYRQLHTLQKLRMDLIRLQHQTELENQLEYNKRRERELHRKHVMELRQQPKNLKAMEMQIKKQFQDTCKVQTKQYKALKNHQLEVTPKNEHKTILKTLKDEQTRKLAILAEQYEQSINEMMASQALRLDEAQEAECQALRLQLQQEMELLNAYQSKIKMQTEAQHERELQKLEQRVSLRRAHLEQKIEEELAALQKERSERIKNLLERQEREIETFDMESLRMGFGNLVTLDFPKEDYR
# B10: TTK (protein)
# chain: MESEDLSGRELTIDSIMNKVRDIKNKFKNEDLTDELSLNKISADTTDNSGTVNQIMMMANNPEDWLSLLLKLEKNSVPLSDALLNKLIGRYSQAIEALPPDKYGQNESFARIQVRFAELKAIQEPDDARDYFQMARANCKKFAFVHISFAQFELSQGNVKKSKQLLQKAVERGAVPLEMLEIALRNLNLQKKQLLSEEEKKNLSASTVLTAQESFSGSLGHLQNRNNSCDSRGQTTKARFLYGENMPPQDAEIGYRNSLRQTNKTKQSCPFGRVPVNLLNSPDCDVKTDDSVVPCFMKRQTSRSECRDLVVPGSKPSGNDSCELRNLKSVQNSHFKEPLVSDEKSSELIITDSITLKNKTESSLLAKLEETKEYQEPEVPESNQKQWQSKRKSECINQNPAASSNHWQIPELARKVNTEQKHTTFEQPVFSVSKQSPPISTSKWFDPKSICKTPSSNTLDDYMSCFRTPVVKNDFPPACQLSTPYGQPACFQQQQHQILATPLQNLQVLASSSANECISVKGRIYSILKQIGSGGSSKVFQVLNEKKQIYAIKYVNLEEADNQTLDSYRNEIAYLNKLQQHSDKIIRLYDYEITDQYIYMVMECGNIDLNSWLKKKKSIDPWERKSYWKNMLEAVHTIHQHGIVHSDLKPANFLIVDGMLKLIDFGIANQMQPDTTSVVKDSQVGTVNYMPPEAIKDMSSSRENGKSKSKISPKSDVWSLGCILYYMTYGKTPFQQIINQISKLHAIIDPNHEIEFPDIPEKDLQDVLKCCLKRDPKQRISIPELLAHPYVQIQTHPVNQMAKGTTEEMKYVLGQLVGLNSPNSILKAAKTLYEHYSGGESHNSSSSKTFEKKRGKK
# B11: FGFR4 (protein)
# chain: RGQALHGRHPRPPATVQKLSRFPLARQFSLESGSSGKSSSSLVRGVRLSSSGPALLAGLVSLDLPLDPLWEFPRDRLVLGKPLGEGCFGQVVRAEAFGMDPARPDQASTVAVKMLKDNASDKDLADLVSEMEVMKLIGRHKNIINLLGVCTQEGPLYVIVECAAKGNLREFLRARRPPGPDLSPDGPRSSEGPLSFPVLVSCAYQVARGMQYLESRKCIHRDLAARNVLVTEDNVMKIADFGLARGVHHIDYYKKTSNGRLPVKWMAPEALFDRVYTHQSDVWSFGILLWEIFTLGGSPYPGIPVEELFSLLREGHRMDRPPHCPPELYGLMRECWHAAPSQRPTFKQLVEALDKVLLAVSEEYLDLRLTFGPYSPSGGDASSTCSSSDSVFSHDPLPLGSSSFPFGSGVQT
# Target: T1, Bovine, dephosphorylated, Myelin Basic …
row,Protein,MBP Kinase Activity
1,B1,Strong
2,B2,Negative
3,B3,Strong
4,B4,Strong
5,B5,Negative
6,B6,Strong
7,B7,Strong
8,B8,Strong
9,B9,Strong
10,B10,Negative
11,B11,Strong
